Laboratory results published in US20260176659A1, “IMPROVED METHOD FOR THE PRODUCTION OF NATURAL VANILLIN” (BASE SE, priority 2022, published 2026).
“And” between values parts separate entries of the source, which are not always exact repeats. Identical values can stand only once.

Columns and labels:
[1] = Bioconversion of eugenol to vanillin: one-pot concurrent cascade EUGO + alkene cleavage oxygenase (5 mM scale); format: biochemical; settings: for Product distribution after 24 hours 2a (%) / Product distribution after 24 hours 3a (%) / Product distribution after 24 hours 5a (%): Table 8b, EUGO FD-CFE 1 mg/mL, CO-0X FD-CFE 1 mg/mL, catalase 10 mg/mL, eugenol 5 mM; for Reaction composition at 24 hours (%) 1a / Reaction composition at 24 hours (%) 2a / Reaction composition at 24 hours (%) 3a / Reaction composition at 24 hours (%) 5a / Conversion of 1a to 3a (%): EUGO fresh CFE 1 mg/mL, IECO 0 mg/mL; for Conversion of 1a to 3a (%): 24 h
Method: Stock solutions of eugenol (100 mM) were prepared in ethanol or DMSO and stored at −20° C. Unless otherwise stated, the reaction mixtures (0.5 mL) were set up in 1.5 mL glass vials as follows: freeze-dried cell free extract of IECO/CO-XX (3 mg) and EUGO (0.5 mg) were dissolved in the reaction buffer (50 mM glycine-NaOH pH 9.0) containing sodium ascorbate (1 mM), FeSO4 (1 mM) and bovine liver catalase (5 mg, Sigma Aldrich C40). The reaction was initiated by the addition of 0.025 mL eugenol stock (final concentration 5 mM), then incubated at 30° C. and 120 rpm overnight (rotary shaker). The final content of cosolvent was 5% v/v. To improve oxygenation, the vials were placed horizontally. At certain time points, samples (0.2 mL) were quenched with methanol (0.4 mL) and the mixture was centrifuged at 20238 g for 5-10 mins. Finally, the supernatant was analysed by HPLC.
EUGO (0.5 mg CFE), CO-25 (3 mg CFE) and catalase (5 mg, Sigma product #C40) were dissolved in 50 mM Glycine-NaOH pH 9.0 or Tris-HCl pH 8.0 together with FeSO4 (1 mM) and sodium ascorbate (1 mM). Note that the buffer content of the freeze-dried biocatalyst prep was not considered for the assembling of the reaction. The reaction was started by the addition of 5 mM eugenol from a 20× stock in ethanol. The reactions—performed in glass vials—were then incubated at 30° C. and 120 rpm (25 mm shaker). Finally, samples of the reaction mixture were diluted with MeOH and analyzed by HPLC at 280 and 340 nm.

[2] = Biotransformation of eugenol to coniferyl alcohol by EUGO (50 mM scale); format: biochemical
Method: The biotransformation (total volume 3 mL) was performed in a 10 mL round bottom flask with a stir bar. Eugenol (0.023 mL, 25 mg, 0.15 mmol, 1.0 equiv., 50 mM final conc.) was dissolved in DMSO or ethanol (0.150 mL). Then, the solution was diluted with Tis-HCl buffer (50 mM, pH 8.0, 2.827 mL). To obtain a homogeneous dispersion of the eugenol droplets, the mixture was stirred for about 15-20 mins. Then bovine liver catalase (Sigma P #C40, 30 mg, 2300 kU) and EUGO (30 mg of freeze-dried cell free extract, Tris base salt content was neglected) were added consecutively (note: EUGO was added after the catalase was completely dissolved). The reaction was incubated at room temperature and gentle stirring (40 rpm) for 17-24 hours. At certain time points, samples (0.1 mL) were diluted with methanol (0.8 mL, 8 vol equiv.) for stopping the reaction. The samples were centrifuged at 20238×g for 10 mins and the supernatant was analyzed by HPLC. When the reaction was completed, the products were extracted with ethyl acetate (3×1.5 mL EtOAc, in 2 mL microcentrifuge tubes). The aqueous and organic phases were separated by centrifugation (20238×g for ˜3 mins). Then, the organic phase was dried with NaSO4 and concentrated under reduced pressure (40° C., 200 mbar), but not dried completely to avoid polymerization. The concentrate was directly purified by silica gel chromatography (10 mL column volume) using a mixture of 1:1 etylacetate:cyclohexane as eluent. Fractions containing coniferyl alcohol (according to TLC) were combined and concentrated under reduced pressure (40° C., 200 mbar). Final drying under high vacuum (1.5 mbar) and inert gas flow yielded the title compound as yellowish solid (24.2 mg, 0.134 mmol, 90% yield). Notes: The obtained product was stored at −20° C. under inert gas atmosphere. Evaporation of a product solution in chloroform induced polymerization, therefore, no crude NMR was taken before product purification.

[3] = EUGO FD-CFE 10 mg/mL, eugenol 50 mM, catalase 10 mg/mL, pH 8.0, 5% v/v DMSO, room temperature, 17 hours
[4] = EUGO FD-CFE 10 mg/mL, eugenol 50 mM, catalase 10 mg/mL, pH 8.0, 5% v/v DMSO, room temperature, 24 hours

B1: CO-24: alkene cleavage oxygenase, Pseudomonas ogarae, SEQ ID NO: 132 (protein, listed as Pseudomonas ogarae)
chain: MSIPFPQTPEFSGVLYTPSRVEAEVFDLEIEGILPASICGTFYQVAPDPQYPPMLGNDIFFNGDGVVSRFNFANGKVSMRRRYVKTDRLLAQRREGRSLNGVYRNVYTNDPLAAKNNTTANTTVIPHNGVLLALKEDALPWALDLETLETLGEWTFDGQIKAATFTAHPKLDPVTGNLLACSYEAKGDGTPDLAYFEISPDGKLLHEIWFQAPYAAMVHDFAVTERYVVFPLIPLTVDVERMKNGGPHFQWQPDLPQLFAIVPRNGCGQDVRWFKGPKDGFQGHTLNAFDEDGKVYVDMPVTGGNIFYFFPQADGYVPPPETLAASLMRWTFDLNGAQEDVQPQPLTEYPCEFPRCDDRYIGRKYQHGFLLAFDPERPYNPANGPIPFQFFNLLAHLDLQTGRTDAWFPGDSGCFQEPIFIPRSADAEEADGYVVALLNLIAEGRSELVVLDTRDMASGPIARIRIPFRMRMSLHGCWAPND
Product distribution after 24 hours 2a (%) ([1]; pH 8.0): 78.5%
Product distribution after 24 hours 3a (%) ([1]; pH 8.0): 6.1%
Product distribution after 24 hours 5a (%) ([1]; pH 8.0): 15.4%
Product distribution after 24 hours 2a (%) ([1]; pH 9.0): 73.9%
Product distribution after 24 hours 3a (%) ([1]; pH 9.0): 5.6%
Product distribution after 24 hours 5a (%) ([1]; pH 9.0): 20.5%

B2: CO-22: alkene cleavage oxygenase, Pseudomonas kilonensis, SEQ ID NO: 128 (protein, listed as Pseudomonas kilonensis)
chain: MTIPFPQTSEFSGALYTPSRVEAELFDLEVEGTLPAEIRGAFYQVAPDPQYPPMLGTDIFFNGDGMVTGFYFANGKVSMRRRYVKTDRLMAQRREGRSLNGVYRNLYTNDPLAAKNNTTANTTVIPHNGVLLALKEDALPWAMDLETLETLGEWTFDGQIKAATFTAHPKRDPATGNLLAFSYEAKGDGTPDIAYFEISPDGKLLHEIWFQAPYAAMVHDFAVTERYVVFPLIPLTVDVERMKNGGPHFQWQPDLPQLFAVVPRNGNAQDVRWFKGPKDSFQGHTLNAFDEDGKVYVDMPVTGGNVFYFFPQADGYVPPPETLAASLMRWTFDLSSPQDEVEPQPLTEYPCEFPRCDDRYIGRKYQHGFLLAFDPERPYNPANGPIPFQFFNLLVHLNLKTGSTDAWFPGDSGCFQEPIFIPRSADAEEADGYVVALLNLIAEGRSELVVLDSRDMAGGPIARIRIPFRMRMSLHGCWAPSD
Product distribution after 24 hours 2a (%) ([1]; pH 8.0): 69.4%
Product distribution after 24 hours 3a (%) ([1]; pH 8.0): 15.0%
Product distribution after 24 hours 5a (%) ([1]; pH 8.0): 15.6%
Product distribution after 24 hours 2a (%) ([1]; pH 9.0): 63.2%
Product distribution after 24 hours 3a (%) ([1]; pH 9.0): 16.8%
Product distribution after 24 hours 5a (%) ([1]; pH 9.0): 20.0%

B3: CO-23: alkene cleavage oxygenase, Pseudomonas viciae, SEQ ID NO: 130 (protein, listed as Pseudomonas viciae)
chain: MTIPFPQTPEFSGALYTPSRVEAEVFDLEIEGVLPASIGGTFYQVAPDPQYPPMLGNDIFFNGDGVVSRFNFANGKVSMRRRYVKTDRLLAQRREGRSLNGVYRNVYTNDRLAAKNNTTANTTVIPHNGVLLALKEDALPWAMDLDTLETLGEWTFDGQIKSATFTAHPKLDPVTGNLLACSYEAKGDGTPDLAYFEISPDGKLLHEIWFQAPYAAMVHDFAVTERYVVFPLIPLTVDVERMKNGGPHFQWQPDLPQLFAVVPRNGNAQDVRWFKGPKDGFQGHTLNAFDEDGKVYVDMPVTGGNIFYFFPQADGYVPPPETLAASLMRWTFDLNSALDEVEPQPLTDYPCEFPRCDDRYIGRKYQHGFLLAFDPERPYNPANGPIPFQFFNLLVHLNLKTGITDAWFPGDSGCFQEPIFIPRSADAEEADGYVVALLNLIAEGRSELVVLDSRDMASGPIARIRIPFRMRMSLHGCWTADPN
Product distribution after 24 hours 2a (%) ([1]; pH 8.0): 69.0%
Product distribution after 24 hours 3a (%) ([1]; pH 8.0): 13.7%
Product distribution after 24 hours 5a (%) ([1]; pH 8.0): 17.3%
Product distribution after 24 hours 2a (%) ([1]; pH 9.0): 67.0%
Product distribution after 24 hours 3a (%) ([1]; pH 9.0): 13.6%
Product distribution after 24 hours 5a (%) ([1]; pH 9.0): 19.4%

B4: EUGO: eugenol oxidase from Rhodococcus jostii (Uniprot: Q0SBK1), SEQ ID NO: 2, used as cell free extract (protein)
chain: MTRTLPPGVSDERFDAALQRFRDVVGDKWVLSTADELEAFRDPYPVGAAEANLPSAVVSPESTEQVQDIVRIANEYGIPLSPVSTGKNNGYGGAAPRLSGSVIVKTGERMNRILEVNEKYGYALLEPGVTYFDLYEYLQSHDSGLMLDCPDLGWGSVVGNTLDRGVGYTPYGDHFMWQTGLEVVLPQGEVMRTGMGALPGSDAWQLFPYGFGPFPDGMFTQSNLGIVTKMGIALMQRPPASQSFLITFDKEEDLEQIVDIMLPLRINMAPLQNVPVLRNIFMDAAAVSKRTEWFDGDGPMPAEAIERMKKDLDLGFWNFYGTLYGPPPLIEMYYGMIKEAFGKIPGARFFTHEERDDRGGHVLQDRHKINNGIPSLDELQLLDWVPNGGHIGFSPVSAPDGREAMKQFEMVRNRANEYNKDYAAQFIIGLREMHHVCLFIYDTAIPEAREEILQMTKVLVREAAEAGYGEYRTHNALMDDVMATFNWGDGALLKFHEKIKDALDPNGIIAPGKSGIWSQRFRGQNL
modifications: cell free extract; Rhodococcus Jostii
Reaction composition at 24 hours (%) 1a ([1]; cosolvent DMSO 5% v/v, 5 mM 1a): 1≤ %
Reaction composition at 24 hours (%) 2a ([1]; cosolvent DMSO 5% v/v, 5 mM 1a): 96%
Reaction composition at 24 hours (%) 3a ([1]; cosolvent DMSO 5% v/v, 5 mM 1a): 1≤ %
Reaction composition at 24 hours (%) 5a ([1]; cosolvent DMSO 5% v/v, 5 mM 1a): 2%
Conversion of 1a to 3a (%) ([1]; cosolvent DMSO 5% v/v, 5 mM 1a): 1≤ %
Reaction composition at 24 hours (%) 1a ([1]; cosolvent EtOH 5% v/v, 5 mM 1a): 1≤ %
Reaction composition at 24 hours (%) 2a ([1]; cosolvent EtOH 5% v/v, 5 mM 1a): 97%
Reaction composition at 24 hours (%) 3a ([1]; cosolvent EtOH 5% v/v, 5 mM 1a): 1≤ %
Reaction composition at 24 hours (%) 5a ([1]; cosolvent EtOH 5% v/v, 5 mM 1a): 2%
Conversion of 1a to 3a (%) ([1]; cosolvent EtOH 5% v/v, 5 mM 1a): 1≤ %
time in which the oxidation step (1a to 2a) occurs ([1]; one pot concurrent cascade EUGO-IECO, 5 mM 1a, time studies): within the first two hours
2a [2, 3]: 48 mM and 41 mM
Reaction composition (%) 2a [2, 3]: 95% and 76%
Reaction composition (%) 5a [2, 3]: 4% and 3%
2a [2, 4]: 50 mM
Reaction composition (%) 1a [2, 4]: 0%
Reaction composition (%) 2a [2, 4]: 95%
Reaction composition (%) 5a [2, 4]: 5%
time within which the substrate was consumed ([2]; EUGO cell free extract, 50 mM 1a): ≤ 24 h
